Data as given in patent US20110098217A1 (INDIANA UNIVERSITY RESEARCH AND TECHNOLOGY, published 2011).
Where two headings read alike, the source gives them in different places. Numbered stars: 1 amine (or outer) side, 2 acyl side, 3 side chain; on linkers, the order of the positions; unused ones are H or OH. Square brackets hold non-standard residues; d marks the D form. Ends that are not written are not given here. CSA‑2 = Cys(S-CH2CH2COOH), S-(2-carboxyethyl)-L-cysteine, O=C([C@H](CSCCC(=O)[*:3])N[*:1])[*:2]; CSA‑1 = Cys(S-CH2COOH), S-carboxymethyl-L-cysteine, O=C([C@H](CSCC(=O)[*:3])N[*:1])[*:2]; Abu(4-SO3H) = N[C@@H](CCS(=O)(=O)O)C(=O)O; PhLac = O=C(O)[C@@H](O)Cc1ccccc1; NSG‑1 = not defined here; NSG‑2 = not defined here

Key:
[1] = target: human glucagon receptor (human) (UniProt P47871); experiment: cell-based or functional assay
human glucagon receptor (human), sequence (P47871 26-477): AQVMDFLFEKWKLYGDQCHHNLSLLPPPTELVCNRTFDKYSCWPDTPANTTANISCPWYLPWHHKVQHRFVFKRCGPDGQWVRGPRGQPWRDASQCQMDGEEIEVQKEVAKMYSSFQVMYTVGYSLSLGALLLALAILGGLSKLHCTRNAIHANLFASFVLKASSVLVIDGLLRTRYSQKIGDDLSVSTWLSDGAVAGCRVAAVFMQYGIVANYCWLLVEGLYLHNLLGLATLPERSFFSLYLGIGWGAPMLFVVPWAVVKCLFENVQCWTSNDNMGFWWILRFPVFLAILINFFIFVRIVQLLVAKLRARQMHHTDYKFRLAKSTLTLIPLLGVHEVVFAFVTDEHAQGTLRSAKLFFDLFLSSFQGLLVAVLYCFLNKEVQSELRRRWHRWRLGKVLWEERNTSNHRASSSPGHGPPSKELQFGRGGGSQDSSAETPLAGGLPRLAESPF

human glucagon receptor [2] = target: T1, human glucagon receptor (human, UniProt P47871 26-477); experiment: SPA competition vs 125I-glucagon, receptor membranes
T1 construct: whole, on cells; cAMP assay: transfected HEK293 cells
T1 sequence (P47871 26-477): as above

[3] = target: human glucagon receptor (human) (UniProt P47871); experiment: cell-based or functional assay; remark: listed apart in the source
[4] = target: human GLP-1 receptor (human) (UniProt P43220); experiment: cell-based or functional assay
human GLP-1 receptor (human), sequence (P43220 24-463): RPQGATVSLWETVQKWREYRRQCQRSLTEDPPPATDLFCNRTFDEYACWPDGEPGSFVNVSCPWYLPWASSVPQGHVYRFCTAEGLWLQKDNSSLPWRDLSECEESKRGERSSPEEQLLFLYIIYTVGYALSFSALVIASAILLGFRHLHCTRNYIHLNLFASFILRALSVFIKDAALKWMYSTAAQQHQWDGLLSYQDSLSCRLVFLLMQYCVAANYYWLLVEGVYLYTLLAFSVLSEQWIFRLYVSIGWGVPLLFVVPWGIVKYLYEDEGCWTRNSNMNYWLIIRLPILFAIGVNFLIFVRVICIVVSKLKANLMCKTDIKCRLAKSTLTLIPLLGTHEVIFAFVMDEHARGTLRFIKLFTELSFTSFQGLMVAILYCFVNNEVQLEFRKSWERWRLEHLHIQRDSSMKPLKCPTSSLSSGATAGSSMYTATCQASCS

human glucagon receptor [5] = target: T1, human glucagon receptor; experiment: cell-based or functional assay
human glucagon receptor [6] = target: T1, human glucagon receptor; experiment: SPA competition vs 125I-glucagon, receptor membranes; remark: listed apart in the source
human glucagon receptor [7] = target: T1, human glucagon receptor; experiment: cell-based or functional assay; remark: listed apart in the source

[PLA6, E9, E16K20(Lactam)]G(6-39) (peptide)
Glucagon antagonism IC50 (inhibit 0.2-0.8 nM glucagon) [1]: 20.5 nM

B1: [(NSG-1)^9] Glucagon(aa2-29)-NH2 (peptide)
peptide: SQGTFTS[NSG‑1]YSKYLDSRRAQDFVQWLMNT-NH2
modifications: reading uncertain
notes: also called peptide no
IC50 (human glucagon receptor [2]): 983 nM

B2: [(CSA-1]^9] Glucagon(aa2-29)-NH2 (peptide)
peptide: SQGTFTS[CSA‑1]YSKYLDSRRAQDFVQWLMNT-NH2
modifications: N-terminus assumed
SMILES: CSCC[C@H](NC(=O)[C@H](CC(C)C)NC(=O)[C@H](Cc1c[nH]c2ccccc12)NC(=O)[C@H](CCC(N)=O)NC(=O)[C@@H](NC(=O)[C@H](Cc1ccccc1)NC(=O)[C@H](CC(=O)O)NC(=O)[C@H](CCC(N)=O)NC(=O)[C@H](C)NC(=O)[C@H](CCCNC(=N)N)NC(=O)[C@H](CCCNC(=N)N)NC(=O)[C@H](CO)NC(=O)[C@H](CC(=O)O)NC(=O)[C@H](CC(C)C)NC(=O)[C@H](Cc1ccc(O)cc1)NC(=O)[C@H](CCCCN)NC(=O)[C@H](CO)NC(=O)[C@H](Cc1ccc(O)cc1)NC(=O)[C@H](CSCC(=O)O)NC(=O)[C@H](CO)NC(=O)[C@@H](NC(=O)[C@H](Cc1ccccc1)NC(=O)[C@@H](NC(=O)CNC(=O)[C@H](CCC(N)=O)NC(=O)[C@@H](N)CO)[C@@H](C)O)[C@@H](C)O)C(C)C)C(=O)N[C@@H](CC(N)=O)C(=O)N[C@H](C(N)=O)[C@@H](C)O
notes: also called peptide no
IC50 (human glucagon receptor [2]): 12.7 nM

B3: [(NSG-2)^9] Glucagon(aa2-29)-NH2 (peptide)
peptide: SQGTFTS[NSG‑2]YSKYLDSRRAQDFVQWLMNT-NH2
modifications: reading uncertain
notes: also called peptide no
IC50 (human glucagon receptor [2]): 2350 nM

B4: [PLA6, E9, E16]G(6-39) (peptide)
peptide: FTSEYSKYLDERRAQDFVQWLMNTGPSSGAPPPS
modifications: PLA at position 6; C-terminal amide
Glucagon antagonism IC50 (inhibit 0.2-0.8 nM glucagon) [3]: 58.1 nM | GLP-1 agonism EC50 [4]: 1760 nM

B5: [Ac-PLA^6, E^9]Glucagon(aa6-29)-NH2 (peptide)
peptide: Ac-[PhLac]TSEYSKYLDSRRAQDFVQWLMNT-NH2
IC50 (cAMP, inhibit 0.8 mM Glucagon) (human glucagon receptor [5]): 38.1 nM

B6: K40-chol G(6-40) (peptide)
peptide: FTSDYSKYLDERRAKDFVQWLMDTGPSSGAPPPSK
modifications: PLA at position 6; lactam bridge Glu16-Lys20; Lys40(COCH2CH2S-Chol) cholesterol conjugate; C-terminal amide
Glucagon antagonism IC50 (inhibit 0.4 nM glucagon) [3]: 312 nM | GLP-1 agonism EC50 [4]: 47 nM

B7: [desHis^1, desPhe^6, hCys^9(SO3-), Phe^25, Leu^27] Glucagon-NH2 (peptide)
peptide: SQGTTS[Abu(4-SO3H)]YSKYLDSRRAQDFVQFLLNT-NH2
modifications: N-terminus assumed
SMILES: CC(C)C[C@H](NC(=O)[C@H](Cc1ccc(O)cc1)NC(=O)[C@H](CCCCN)NC(=O)[C@H](CO)NC(=O)[C@H](Cc1ccc(O)cc1)NC(=O)[C@H](CCS(=O)(=O)O)NC(=O)[C@H](CO)NC(=O)[C@@H](NC(=O)[C@@H](NC(=O)CNC(=O)[C@H](CCC(N)=O)NC(=O)[C@@H](N)CO)[C@@H](C)O)[C@@H](C)O)C(=O)N[C@@H](CC(=O)O)C(=O)N[C@@H](CO)C(=O)N[C@@H](CCCNC(=N)N)C(=O)N[C@@H](CCCNC(=N)N)C(=O)N[C@@H](C)C(=O)N[C@@H](CCC(N)=O)C(=O)N[C@@H](CC(=O)O)C(=O)N[C@@H](Cc1ccccc1)C(=O)N[C@H](C(=O)N[C@@H](CCC(N)=O)C(=O)N[C@@H](Cc1ccccc1)C(=O)N[C@@H](CC(C)C)C(=O)N[C@@H](CC(C)C)C(=O)N[C@@H](CC(N)=O)C(=O)N[C@H](C(N)=O)[C@@H](C)O)C(C)C
notes: His1 and Phe6 deleted; also called Cmpd; 5B
IC50 (human glucagon receptor [6]): 53.3 nM | cAMP Induction EC50 (human glucagon receptor [7]): 3210 nM | cAMP Inhibition IC50 (human glucagon receptor [7]): 9.22 µM

B8: [(CSA-2)^9] Glucagon(aa2-29)-NH2 (peptide)
peptide: SQGTFTS[CSA‑2]YSKYLDSRRAQDFVQWLMNT-NH2
modifications: N-terminus assumed
SMILES: CSCC[C@H](NC(=O)[C@H](CC(C)C)NC(=O)[C@H](Cc1c[nH]c2ccccc12)NC(=O)[C@H](CCC(N)=O)NC(=O)[C@@H](NC(=O)[C@H](Cc1ccccc1)NC(=O)[C@H](CC(=O)O)NC(=O)[C@H](CCC(N)=O)NC(=O)[C@H](C)NC(=O)[C@H](CCCNC(=N)N)NC(=O)[C@H](CCCNC(=N)N)NC(=O)[C@H](CO)NC(=O)[C@H](CC(=O)O)NC(=O)[C@H](CC(C)C)NC(=O)[C@H](Cc1ccc(O)cc1)NC(=O)[C@H](CCCCN)NC(=O)[C@H](CO)NC(=O)[C@H](Cc1ccc(O)cc1)NC(=O)[C@H](CSCCC(=O)O)NC(=O)[C@H](CO)NC(=O)[C@@H](NC(=O)[C@H](Cc1ccccc1)NC(=O)[C@@H](NC(=O)CNC(=O)[C@H](CCC(N)=O)NC(=O)[C@@H](N)CO)[C@@H](C)O)[C@@H](C)O)C(C)C)C(=O)N[C@@H](CC(N)=O)C(=O)N[C@H](C(N)=O)[C@@H](C)O
notes: also called peptide no
IC50 (human glucagon receptor [2]): 13.3 nM

B9: [hGlu^9] Glucagon(aa2-29)-NH2 (peptide)
peptide: SQGTFTSXYSKYLDSRRAQDFVQWLMNT
modifications: homoglutamic acid (hGlu) at position 9; C-terminal amide
notes: also called peptide no
IC50 (human glucagon receptor [2]): 8.1 nM

B10: [desHis^1, hCys^9(SO3-), Phe^25, Leu^27] Glucagon-NH2 (peptide)
peptide: SQGTFTS[Abu(4-SO3H)]YSKYLDSRRAQDFVQFLLNT-NH2
modifications: N-terminus assumed
SMILES: CC(C)C[C@H](NC(=O)[C@H](Cc1ccc(O)cc1)NC(=O)[C@H](CCCCN)NC(=O)[C@H](CO)NC(=O)[C@H](Cc1ccc(O)cc1)NC(=O)[C@H](CCS(=O)(=O)O)NC(=O)[C@H](CO)NC(=O)[C@@H](NC(=O)[C@H](Cc1ccccc1)NC(=O)[C@@H](NC(=O)CNC(=O)[C@H](CCC(N)=O)NC(=O)[C@@H](N)CO)[C@@H](C)O)[C@@H](C)O)C(=O)N[C@@H](CC(=O)O)C(=O)N[C@@H](CO)C(=O)N[C@@H](CCCNC(=N)N)C(=O)N[C@@H](CCCNC(=N)N)C(=O)N[C@@H](C)C(=O)N[C@@H](CCC(N)=O)C(=O)N[C@@H](CC(=O)O)C(=O)N[C@@H](Cc1ccccc1)C(=O)N[C@H](C(=O)N[C@@H](CCC(N)=O)C(=O)N[C@@H](Cc1ccccc1)C(=O)N[C@@H](CC(C)C)C(=O)N[C@@H](CC(C)C)C(=O)N[C@@H](CC(N)=O)C(=O)N[C@H](C(N)=O)[C@@H](C)O)C(C)C
notes: also called Cmpd; 4B
IC50 (human glucagon receptor [6]): 13.9 nM | cAMP Induction EC50 (human glucagon receptor [7]): 430 nM

B11: [PLA^5, E^9]Glucagon(aa5-29)-NH2 (peptide)
peptide: [PhLac]FTSEYSKYLDSRRAQDFVQWLMNT-NH2
modifications: N-terminus assumed
SMILES: CSCC[C@H](NC(=O)[C@H](CC(C)C)NC(=O)[C@H](Cc1c[nH]c2ccccc12)NC(=O)[C@H](CCC(N)=O)NC(=O)[C@@H](NC(=O)[C@H](Cc1ccccc1)NC(=O)[C@H](CC(=O)O)NC(=O)[C@H](CCC(N)=O)NC(=O)[C@H](C)NC(=O)[C@H](CCCNC(=N)N)NC(=O)[C@H](CCCNC(=N)N)NC(=O)[C@H](CO)NC(=O)[C@H](CC(=O)O)NC(=O)[C@H](CC(C)C)NC(=O)[C@H](Cc1ccc(O)cc1)NC(=O)[C@H](CCCCN)NC(=O)[C@H](CO)NC(=O)[C@H](Cc1ccc(O)cc1)NC(=O)[C@H](CCC(=O)O)NC(=O)[C@H](CO)NC(=O)[C@@H](NC(=O)[C@H](Cc1ccccc1)NC(=O)[C@@H](O)Cc1ccccc1)[C@@H](C)O)C(C)C)C(=O)N[C@@H](CC(N)=O)C(=O)N[C@H](C(N)=O)[C@@H](C)O
IC50 (cAMP, inhibit 0.8 mM Glucagon) (human glucagon receptor [5]): 328 nM
